Here are results for two sequences from PMC10272880.

In the series the target is T1, LldR (Escherichia coli K-12 W3110 type-A) (UniProt P0ACL7).
T1 sequence: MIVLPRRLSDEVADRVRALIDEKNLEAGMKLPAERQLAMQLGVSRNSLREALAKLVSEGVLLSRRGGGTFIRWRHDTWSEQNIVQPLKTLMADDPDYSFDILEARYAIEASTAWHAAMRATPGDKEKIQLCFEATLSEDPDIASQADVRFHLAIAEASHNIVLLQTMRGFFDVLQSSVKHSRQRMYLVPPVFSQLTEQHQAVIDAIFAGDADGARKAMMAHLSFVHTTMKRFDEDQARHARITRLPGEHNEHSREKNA
In words: EMSA. The conditions noted are these: EMSA: binding buffer (composition given for gSELEX: 10 mM Tris-HCl pH 7.8 at 4 °C, 3 mM Mg acetate, 150 mM NaCl, 1.25 mg/ml BSA), 37 °C 30 min, then effector …. Background: In EMSA bound probe runs differently from free probe, usually more slowly.

As to “GATTTTCAACCAGATATGATCATGGTTACGCCATCTTATTGCCTTAACCTGATTGAAGAGCTGGAGCGGCAGTTGGGCGGTGATGCCAGCGGTTGCTCGCTGCGGGTTGGAGTATTTGGTGCTGAGCCGTGGACACAGGCCATGCGTAAAGAGATTGAGCGTCGCCTGGGGATCACCGCACTGGATATTTATGGCCTGTCAGAAGTGATGGGGCCGGGGGTGGCGATGGAGTGTCTGGAAACTACCGACGGCCCAACCATTTGGGAAGATCATTTCTATCCTGAAATTGTTA (double strand) [paaX promoter probe]”, the binding entry is listed as “no binding”.

For the sequence “TCCCGGACCTCGTGCACAGGTAGGACCAATTTTTCTGTTCTTAACTCGCAAAACACGCACATCACGTAAGTGATTATGTTACATCAATTTAACATTGAGTTAACCAAGACAAGGTCACAGAGCTGGAAAAAAAATGGTCTGACCGGTAGCTAAAGAGATAGACGAAAACGAAAAGCCCGCTTAATAACTGTTCACAGAAGCAGCGCGCAAAAATCAGCTGCCACACAACACAACAAAGCGAAGCCTACTCATGAGCATCTTGTACGAAGAGCGTCTT (double strand) [glcD/glcC probe]”, the binding entry is reported as “binds”.
